Reference: patent US20230365642A1 (published 2023)
Positions count from the first letter of the chain named. Each block holds one binder with its values, some of them ahead of it.

Key:
[1] = molecular target: MDNA109 (1st Gen.); assay: BLI
[2] = molecular target: MDNA109-Alb (2nd Gen.); assay: BLI
[3] = molecular target: T1, IL2R alpha (CD25) (UniProt P01589 22-213); assay: BLI
T1 chain: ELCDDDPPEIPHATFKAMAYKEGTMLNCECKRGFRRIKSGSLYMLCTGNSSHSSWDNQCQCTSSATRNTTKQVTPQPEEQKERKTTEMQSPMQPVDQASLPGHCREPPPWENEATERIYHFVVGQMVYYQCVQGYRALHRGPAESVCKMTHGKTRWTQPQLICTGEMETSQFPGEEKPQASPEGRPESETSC

[4] = molecular target: T2, IL2R beta (CD122) (UniProt P14784 27-239); assay: BLI
T2 chain: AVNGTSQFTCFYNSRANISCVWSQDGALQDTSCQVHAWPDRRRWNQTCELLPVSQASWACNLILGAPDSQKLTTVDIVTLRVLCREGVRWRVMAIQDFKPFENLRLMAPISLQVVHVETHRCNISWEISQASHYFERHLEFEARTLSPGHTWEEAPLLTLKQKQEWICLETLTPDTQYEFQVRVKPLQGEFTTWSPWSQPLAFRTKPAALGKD

[5] = molecular target: T3, IL13Rα Protein, Human, Recombinant, His Tag (human IL13Rα1) (human, UniProt P78552 22-343); assay: SPR; equilibrium
T3 chain: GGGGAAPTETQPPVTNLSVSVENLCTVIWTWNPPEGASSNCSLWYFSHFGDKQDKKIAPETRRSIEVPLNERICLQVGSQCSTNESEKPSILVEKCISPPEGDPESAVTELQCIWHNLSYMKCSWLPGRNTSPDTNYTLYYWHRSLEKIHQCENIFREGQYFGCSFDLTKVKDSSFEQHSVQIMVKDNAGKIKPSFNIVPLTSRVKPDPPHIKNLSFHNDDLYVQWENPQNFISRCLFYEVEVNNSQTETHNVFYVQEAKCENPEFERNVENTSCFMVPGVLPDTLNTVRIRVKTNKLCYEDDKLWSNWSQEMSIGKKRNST

[6] = molecular target: T4, IL13Rα2 Protein, Human, Recombinant, His Tag (human, UniProt Q14627 27-343); assay: SPR; kinetic
T4 chain: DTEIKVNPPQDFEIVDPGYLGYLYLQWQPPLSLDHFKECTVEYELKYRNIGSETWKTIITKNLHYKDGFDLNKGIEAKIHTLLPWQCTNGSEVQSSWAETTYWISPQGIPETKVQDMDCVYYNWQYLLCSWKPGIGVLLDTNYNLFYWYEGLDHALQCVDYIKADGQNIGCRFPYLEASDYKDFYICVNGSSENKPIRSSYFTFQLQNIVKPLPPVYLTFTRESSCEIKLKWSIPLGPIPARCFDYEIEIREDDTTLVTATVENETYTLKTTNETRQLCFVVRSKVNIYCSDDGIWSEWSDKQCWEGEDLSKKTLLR

[7] = molecular target: T3, IL13Rα Protein, Human, Recombinant, His …; assay: SPR; kinetic
[8] = molecular target: T4, IL13Rα2 Protein, Human, Recombinant, …; assay: SPR; equilibrium
[9] = molecular target: MDNA19 (3rd Gen.); assay: BLI

Kd [1]: 26 nM
Kd [2]: 56 nM
B1: CD25 (IL-2Rα) (receptor)
chain: T1 chain

Kd [3]: 14 nM
Kd [4]: 2.7 nM
B2: MDNA109-Fc (2nd Gen.) (protein)
chain: APTSSSTKKTQLQLEHLLLDLQMILNGINNYKNPKLTRMLTFKFYMPKKATELKHLQCLEEELKPLEEVLNLAQSKNFHFDPRDVVSNINVFVLELKGSETTFMCEYADETATIVEFLNRWITFCQSIISTLTGGGGSGGGGSGGGGSDKTHTCPPCPAPELLGGPSVFLFPPKPKDTLMISRTPEVTCVVVDVSHEDPEVKFNWYVDGVEVHNAKTKPREEYASTYRVVSVLTVLHQDWLNGKEYKCKVSNKALPAPIEKTISKAKGQPREPQVYTLPPSREEMTKNQVSLTCLVKGFYPSDIAVEWESNGQPENNYKTTPPVLDSDGSFFLYSKLTVDKSRWQQGNVFSCSVMHEALHNHYTQKSLSLSPGK

Kd [5]: 15000 nM
Kd [6]: 0.053 nM
B3: C12 (protein)
chain: PGPVPPSTAHRELIEELVNITQNQKAPLCNGSMVWSINLTAGMYCAALESLINVSGCSAIEKTQRMLSGFCPHKVSAGQFSSLHVMDSRIEVAQFVKDLLNHLRALFKEGQFN

Kd [5]: 4000 nM
Kd [6]: 0.025 nM
B4: C2 (protein)
chain: B3 chain with H10D, R11I, V18I, M86K, D87K, S88T, N101L, R104K, A105K

Kd [5]: 16000 nM
Kd [6]: 0.379 nM
B5: C3 (protein)
chain: B3 chain with H10A, M86T, D87G, S88K

Kd [5]: 31000 nM
Kd [6]: 0.259 nM
B6: C9 (protein)
chain: B3 chain with R11L, V18I, M86K, D87E, S88T, R104K, A105T

Kd [5]: 4100 nM
Kd [6]: 0.003 nM
B7: D7 (protein)
chain: B3 chain with H10A, V18F, M86K, D87K, S88T, N101I, A105K

Kd [6]: 0.218 nM
Kd [7]: 1.18 nM
B8: A7 (protein)
chain: B3 chain with H10I, V18I, M86R, D87G, R89K, N101H, K108R

Kd [6]: 1.5 nM
Kd [7]: 0.275 nM
B9: B2 (protein)
chain: B3 chain with H10L, V18I, M86T, D87G, R89K, N101Y, K108R

Kd [8]: 53 nM
Kd [7]: 5.9 nM
B10: B6 (protein)
chain: B3 chain with H10T, V18I, M86R, D87G, R89K, N101Y, A105T, K108R

Kd [5]: 35000 nM
Kd [6]: 0.272 nM
B11: C7 (protein)
chain: B3 chain with H10L, R11S, I14M, M86R, R89K, R104K

Kd [8]: 50 nM
Kd [7]: 2.94 nM
B12: A5 (protein)
chain: B3 chain with H10L, R11I, V18I, M86K, D87G, R89K, N101H, F107M, K108R

Kd [6]: 0.263 nM
Kd [7]: 2.06 nM
B13: A8 (protein)
chain: B3 chain with H10I, V18I, M86R, D87S, N101H, A105T, K108R

Kd [5]: 3600 nM
Kd [6]: 0.0001 nM
B14: C11 (protein)
chain: B3 chain with M86T, D87G, S88R, R89K, N101L, R104K, A105K

Kd [5]: 264 nM
Kd [6]: 5 nM
B15: C10 (protein)
chain: B3 chain with R11L, V18I, S88T, N101L, R104K, A105K

Kd [8]: 108 nM
Kd [7]: 18 nM
B16: B4 (protein)
chain: B3 chain with H10L, R11S, V18I, M86K, D87G, R89M, N101Y, A105T, K108R

Kd [5]: 36000 nM
Kd [6]: 0.393 nM
B17: C4 (protein)
chain: B3 chain with H10V, M86R, S88T, R104K, A105E, K108T

Kd [6]: 0.267 nM
Kd [7]: 1.9 nM
B18: A6 (protein)
chain: B3 chain with H10I, V18L, D87K, R89K, N101H, K108R

Kd [6]: 0.391 nM
Kd [7]: 0.084 nM
B19: A11 (protein)
chain: B3 chain with H10V, V18I, M86R, D87S, R89K, N101F, A105T, K108R

Kd [9]: 2.1 nM
Kd [1]: 1.8 nM
Kd [2]: 3.5 nM
B20: CD122 (IL-2Rβ) (receptor)
chain: T2 chain
